Laboratory results from US20250388664A1 (BIOARCTIC, published 2025).
Where two headings read alike, the source gives them in different places.

Columns and labels:
[1] = biological target: T1, truncated hTfR1 of SEQ ID NO:122 (human, UniProt P02786 122-760); assay: SPR, TfR1 amine-coupled, Fab injected, 1:1 fit
T1 construct: also called human TfR1; Human TfR1
Experimental: (§1) Binding of the purified Fabs to human and cynomolgus TfR1 was evaluated using either SPR (FIG. 44) or indirect ELISA (FIG. 45). For SPR, a Biacore 8K instrument (Cytiva) was used. […] The Fabs were injected over the chip using a 2-fold dilution series in four steps starting at 100 nM. The interaction was measured using the single cycle kinetics method with a contact time of 120 s at a flow rate of 30 μl/min followed by a dissociation time of 1000 s. Regeneration of the surface between cycles was done by injecting 3M MgCl₂. The binding data was fitted to a 1:1 interaction model. The Fabs were diluted in HBS-EP+ (Cytiva, #BR100669). Experiments were performed at 25° C.

[2] = biological target: T2, truncated cTfR1 of SEQ ID NO:123 (cynomolgus monkey, UniProt Q5RDH6 122-760 (Pongo abelii entry)); assay: SPR, TfR1 amine-coupled, Fab injected, 1:1 fit
T2 construct: also called cynomolgus TfR1
T2 chain: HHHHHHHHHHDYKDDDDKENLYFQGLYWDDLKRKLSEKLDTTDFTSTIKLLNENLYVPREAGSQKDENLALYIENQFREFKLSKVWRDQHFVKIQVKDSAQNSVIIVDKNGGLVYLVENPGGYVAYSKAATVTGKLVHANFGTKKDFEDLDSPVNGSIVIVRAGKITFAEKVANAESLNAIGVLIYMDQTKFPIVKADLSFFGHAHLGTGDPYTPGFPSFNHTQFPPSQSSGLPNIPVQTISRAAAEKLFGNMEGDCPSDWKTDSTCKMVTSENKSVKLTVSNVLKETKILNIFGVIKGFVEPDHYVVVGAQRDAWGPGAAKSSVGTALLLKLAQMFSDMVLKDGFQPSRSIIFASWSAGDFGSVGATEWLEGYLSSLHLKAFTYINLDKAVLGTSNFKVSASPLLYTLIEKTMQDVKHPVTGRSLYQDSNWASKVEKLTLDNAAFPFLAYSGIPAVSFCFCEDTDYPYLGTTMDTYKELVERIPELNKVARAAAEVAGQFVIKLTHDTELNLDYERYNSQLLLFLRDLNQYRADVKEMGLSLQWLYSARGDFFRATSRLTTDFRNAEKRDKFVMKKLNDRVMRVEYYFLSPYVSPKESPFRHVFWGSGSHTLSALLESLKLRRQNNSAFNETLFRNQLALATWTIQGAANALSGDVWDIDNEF
Experimental: as §1

[3] = biological target: T3, ectodomain of human TfR1 (His10-hTfR1; SEQ ID NO:110) (human, UniProt P02786 89-760); assay: indirect ELISA: plate coated with 1 µg/ml hTfR1 ectodomain, Fab in 1:3 serial dilution, anti-human IgG F(ab')2-HRP
T3 construct: also called ectodomain of hTfR1
Experimental: For the indirect ELISA, half area 96-well plates (Corning, #3690) were coated with 1 μg/ml recombinant ectodomain of hTfR1 (SEQ ID NO:110) in PBS overnight at 4° C. The coated plates were blocked using Pierce protein-free blocking solution (Thermo Fisher Scientific, #37572) for 1 h at room temperature with shaking and washed four times in PBS containing 0.1% TWEEN-20. Serial dilutions (1:3) of various expressed constructs in incubation buffer (1% BSA, 0.1% TWEEN-20 in PBS) were incubated for 1 h at room temperature. […] Following four wash steps, K-Blue® Aqueous TMB substrate (Neogen, #331177) was added to the wells for 15 min at room temperature before the reaction was stopped with 1:1 dilution of 0.5 M H₂SO₄. The optical density at 450 nm was recorded (Spark, Tecan) and background signal was subtracted before analysis.

[4] = biological target: T1, truncated hTfR1 of SEQ ID NO:122; assay: SPR, TfR1 amine-coupled, Fab injected, 1:1 fit; remark: listed apart in the source
Experimental: (§2) The interaction was measured using the single cycle kinetics method with a contact time of 120 s at a flow rate of […] followed by a dissociation time of 600 s. Regeneration of the surface between cycles was done by injecting 3M MgCl₂. The binding data were fitted to a 1:1 interaction model. The Fabs were diluted in HBS-EP+ (Cytiva, #BR100669). Experiments were performed at 25° C.

[5] = biological target: T2, truncated cTfR1 of SEQ ID NO:123; assay: SPR, TfR1 amine-coupled, Fab injected, 1:1 fit
Experimental: as §2

[6] = biological target: T4, hTfR1 (recombinant, construct not specified) (human, UniProt P02786 89-760, limits assumed); assay: ELISA on coated hTfR1, biotinylated scFv detected with streptavidin-HRP, after 48 h in mouse serum or PBS at 37°C or 4°C
T4 construct: also called biotinylated hTfR1
Experimental: After 48 h incubation, binding of the scFv to hTfR1 was evaluated by ELISA. […] The reaction was stopped by 1:1 addition of 0.5 M sulfuric acid (#35354-1L, Honeywell). Optical density at 450 nm was obtained using a microplate reader (Spark, Tecan) and the collected data was plotted using GraphPad Prism software (GraphPad Software Inc).

AβpE3-42 protofibrils [7] = biological target: T5, AβpE3-42 protofibrils (UniProt P05067 674-713, pyroglutamate at position 3 (N-terminal residue)); assay: SPR, protofibrils immobilised, antibody injected, 1:1 fit, apparent
T5 construct: range 3-42 (Aβ numbering); Soluble aggregates made from AβpE3-42 peptide, purified in the void peak of SEC; also called AβpE3-42 PF
T5 sequence (P05067 674-713): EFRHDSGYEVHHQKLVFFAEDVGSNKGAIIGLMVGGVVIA
Experimental: (§3) Single cycle kinetics was also used to measure binding of the antibodies to AβpE3-42 protofibrils. […] For binding to AβpE3-42 protofibrils, the antibodies were injected over the chip using a 3-fold dilution series in five steps starting at 700 nM, using 2 min injection of every antibody concentration and a 60 min dissociation time. Regeneration of the surface between cycles was done by injecting 30 μl 10 mM glycine-HCl pH 1.7. The binding data was fitted to a 1:1 interaction model.
(§4) In all SPR experiments, 1×HBS-EP+ (Cytiva, cat. no. BR100669) was used as running buffer and to dilute antibodies and target antigens. Experiments were performed at 25° C.

Aβ4-28 monomer = biological target: T6, Aβ4-28 monomer (UniProt P05067 675-699); assay: SPR, antibody immobilised, monomer injected, 1:1 fit
T6 construct: range 4-28 (Aβ numbering)
T6 sequence (P05067 675-699): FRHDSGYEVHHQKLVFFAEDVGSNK
Experimental: (§5) Single cycle kinetics with the antibodies immobilized on a CM5 chip was used to measure the binding of the antibodies to the different monomers (AβpE3-40, AβpE11-28, Aβ1-28, Aβ2-28, Aβ3-28 and Aβ4-28). For the measurements, 5 μg/ml of analyte antibody was immobilized on the chip. […] Regeneration of the surface between cycles was done by injecting 30 μl 3 M MgCl₂. The binding data was fitted to a 1:1 interaction model.
as §4

Aβ3-28 monomer = biological target: T7, Aβ3-28 monomer (UniProt P05067 674-699); assay: as above
T7 construct: range 3-28 (Aβ numbering)
T7 sequence (P05067 674-699): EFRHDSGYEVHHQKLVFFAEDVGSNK
Experimental: as §5, §4

AβpE3-40 monomer [8] = biological target: T8, AβpE3-40 monomer (UniProt P05067 674-711, pyroglutamate at position 3 (N-terminal residue)); assay: as above
T8 construct: range 3-40 (Aβ numbering); Synthetic peptide (Bachem/Anaspec), verified monomeric by SEC; also called monomeric AβpE3-40
Experimental: as §5, §4

Aβ2-42 monomer = biological target: T9, Aβ2-42 monomer (UniProt P05067 673-713); assay: ELISA: Aβ monomer captured on a polyclonal anti-Aβ42 coat, hybridoma supernatant diluted 1/243, anti-mouse IgG-HRP
T9 construct: range 2-42 (Aβ numbering)
T9 sequence (P05067 673-713): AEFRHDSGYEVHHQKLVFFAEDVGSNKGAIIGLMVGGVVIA

Aβ1-42 monomer = biological target: T10, Aβ1-42 monomer (UniProt P05067 672-713); assay: as above
T10 construct: range 1-42 (Aβ numbering)
T10 sequence (P05067 672-713): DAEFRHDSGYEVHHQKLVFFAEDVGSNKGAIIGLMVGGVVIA

AβpE3-42 protofibrils [9] = biological target: T5, AβpE3-42 protofibrils; assay: SPR, protofibrils immobilised, antibody injected, 1:1 fit, apparent; binding to AβpE3-42 protofibrils (not monomer); KD in pM
Experimental: as §3, §4

AβpE3-42 protofibrils [10] = biological target: T5, AβpE3-42 protofibrils; assay: inhibition ELISA, antigen titrated in solution, AβpE3-40 coat
Experimental: (§6) For binding to Aβ1-40 and AβpE11-40, the positive control 4G8 (Covance #SIG-39320, epitope: amino acids 17-24 of Aβ) was included. The recombinant antibodies were incubated at a fixed concentration (0.05 μg/ml) with titrating concentrations of the different Aβ antigens. After incubation for 45 min at 900 rpm to reach equilibrium, the antibody-Aβ samples were added to a blocked and washed ELISA plate with an AβpE3-40 coat (0.5 μM). The samples were incubated on the plate for 25 min without shaking followed by washing, incubation with detection antibody, another washing step and finally incubation with alkaline phosphatase substrate.

AβpE11-40 monomer = biological target: T11, AβpE11-40 monomer (UniProt P05067 682-711, pyroglutamate at position 11 (N-terminal residue)); assay: as above
T11 construct: range 11-40 (Aβ numbering)
T11 peptide (looked up): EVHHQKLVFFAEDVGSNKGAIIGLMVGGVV
Experimental: as §6

AβpE3-40 monomer [11] = biological target: T8, AβpE3-40 monomer; assay: as above
Experimental: as §6

Aβ1-40 monomer = biological target: T12, Aβ1-40 monomer (UniProt P05067 672-711); assay: as above
T12 construct: range 1-40 (Aβ numbering)
Experimental: as §6

AβpE11-28 monomer = biological target: T13, AβpE11-28 monomer (UniProt P05067 682-699, pyroglutamate at position 11 (N-terminal residue)); assay: SPR, antibody immobilised
T13 construct: range 11-28 (Aβ numbering)
T13 peptide (looked up): EVHHQKLVFFAEDVGSNK
Experimental: as §5, §4

Aβ2-28 monomer = biological target: T14, Aβ2-28 monomer (UniProt P05067 673-699); assay: SPR, antibody immobilised
T14 construct: range 2-28 (Aβ numbering)
T14 sequence (P05067 673-699): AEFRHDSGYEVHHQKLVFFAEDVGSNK
Experimental: as §5, §4

Aβ1-28 monomer = biological target: T15, Aβ1-28 monomer (UniProt P05067 672-699); assay: SPR, antibody immobilised
T15 construct: range 1-28 (Aβ numbering)
T15 sequence (P05067 672-699): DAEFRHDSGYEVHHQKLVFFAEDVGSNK
Experimental: Affinity and specificity evaluation and KD determination by surface plasmon resonance: Binding interactions between antigens and antibodies were evaluated by SPR using a Biacore 8K instrument (Cytiva) according to standard procedures. […] Additionally, the specificity towards different N-truncated forms of Aβ (Aβ2-28, Aβ3-28, Aβ4-28 and AβpE11-28 monomers) was evaluated.
as §5, §4

B1: h26D3-Fab (Fab, V domains shown)
VH: EVQLVQSGAEVKKPGSSVKVSCKASGYIFTDYNMDWVRQAPGQGLEWIGDINPDYDTTSYNEKFKGRATLTVDKSTSTAYMELSSLRSEDTAVYYCARGGYSGSSYYHPMDYWGQGTLVTVSS
VL: DIQMTQSPSSVSASVGDRVTITCKSSQSLLYSTNQKNYLAWYQQKPGKAPKLLIYWASTRESGVPSRFSGSGSGTDFTLTISSLQPEDFATYYCQQYFIYPRTFGQGTKVEIK
notes: His-tagged Fab from ExpiCHO; also called humanized 26D3 Fab
Kd [1]: 10 nM
Kd [2]: 12 nM
EC50 (read off the curve) [3]: ~0.3 nM
Kd [4]: 3.2 nM
koff [4]: 0.0045 s⁻¹
kon [4]: 1.2e+06 M⁻¹ s⁻¹
Kd [5]: 5.8 nM

B2: h26D3wt_DS, VL-first (His6 and Avi tags, biotinylated) (scFv)
scFv: DIQMTQSPSSVSASVGDRVTITCKSSQSLLYSTNQKNYLAWYQQKPGKAPKLLIYWASTRESGVPSRFSGSGSGTDFTLTISSLQPEDFATYYCQQYFIYPRTFGCGTKVEIKGGGGSGGGGSGGGGSGGGGSEVQLVQSGAEVKKPGSSVKVSCKASGYIFTDYNMDWVRQAPGQCLEWIGDINPDYDTTSYNEKFKGRATLTVDKSTSTAYMELSSLRSEDTAVYYCARGGYSGSSYYHPMDYWGQGTLVTVSS
modifications: biotin on the Avi tag (site directed in vivo biotinylation)
EC50 (read off the curve) [6]: ~0.02 µg/mL

B3: Pyr12.2 (antibody, V domains shown)
VH: EVQLQQSGPELVKPGTSIKMSCKASGYSFTGFTMNWVKQSHGKNLEWIGLINPYNGVTTYNQKFKGKATITVDKSSRTAYMELLSLTYEDSAVYYCTREGNWEGVYWGQGTPVTVSA
VL: EVVLTQTPLTLSVTIGQSASISCKSSQSLLDSNGKTYLHWFLLRPGQSPKRLIYLVSILDSGVPDRFTGSGSGTDFTLKISRVEAEDLGIYYCVQGTHFPFTFGSGTKLEIKR
notes: Murine anti-AβpE3 antibody; also called recombinant antibody Pyr12.2; hybridoma clone Pyr12.2
koff (AβpE3-42 protofibrils [7]): 3.31e-06 s⁻¹
kon (AβpE3-42 protofibrils [7]): 63100 M⁻¹ s⁻¹
Kd (Aβ4-28 monomer): 6760 nM
koff (Aβ4-28 monomer): 0.481 s⁻¹
kon (Aβ4-28 monomer): 78200 M⁻¹ s⁻¹
Kd (Aβ3-28 monomer): 42.6 nM
koff (Aβ3-28 monomer): 5.77e-05 s⁻¹
kon (Aβ3-28 monomer): 1750 M⁻¹ s⁻¹
Kd (AβpE3-40 monomer [8]): 0.57 nM
koff (AβpE3-40 monomer [8]): 4.12e-05 s⁻¹
kon (AβpE3-40 monomer [8]): 71800 M⁻¹ s⁻¹
binding result (Aβ2-42 monomer): no binding
binding result (Aβ1-42 monomer): no binding
Kd (AβpE3-42 protofibrils [9]): 0.0536 nM
IC50 (AβpE3-42 protofibrils [10]): 8.43 nM
IC50 (AβpE11-40 monomer): > 5000 nM
IC50 (AβpE3-40 monomer [11]): 1.52 nM
IC50 (Aβ1-40 monomer): > 5000 nM
binding result (AβpE11-28 monomer): no binding (tested: 2500 nM)
binding result (Aβ2-28 monomer): no binding (tested: 2500 nM)
binding result (Aβ1-28 monomer): no binding (tested: 2500 nM)
